Measurements: article doi:10.1101/2020.03.09.984104 (bioRxiv, 2020)

Molecular target: E. coli Hsp70 (DnaK) (E. coli, UniProt P0A6Y8 1-638)
Assay: SPR

E. coli Hsp70 (DnaK), sequence (P0A6Y8 whole entry): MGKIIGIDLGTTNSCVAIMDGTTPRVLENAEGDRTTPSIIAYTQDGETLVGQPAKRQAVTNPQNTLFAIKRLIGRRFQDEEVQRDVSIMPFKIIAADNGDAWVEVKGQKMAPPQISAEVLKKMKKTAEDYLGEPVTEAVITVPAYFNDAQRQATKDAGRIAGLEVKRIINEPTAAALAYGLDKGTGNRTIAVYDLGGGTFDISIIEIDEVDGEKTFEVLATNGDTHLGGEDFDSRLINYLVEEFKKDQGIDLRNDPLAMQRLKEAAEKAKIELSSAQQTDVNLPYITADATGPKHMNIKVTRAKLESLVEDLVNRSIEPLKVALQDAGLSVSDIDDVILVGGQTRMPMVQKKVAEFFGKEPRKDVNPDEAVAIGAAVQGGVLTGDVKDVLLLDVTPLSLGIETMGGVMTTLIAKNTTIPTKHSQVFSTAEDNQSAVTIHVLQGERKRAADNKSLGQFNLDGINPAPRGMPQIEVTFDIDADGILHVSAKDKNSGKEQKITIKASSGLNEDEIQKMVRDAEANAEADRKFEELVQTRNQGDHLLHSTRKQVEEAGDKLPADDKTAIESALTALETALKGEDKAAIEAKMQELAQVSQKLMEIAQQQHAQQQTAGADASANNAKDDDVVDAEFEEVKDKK

| Binder | binding result |
| --- | --- |
| ALLLMYRR | binds |
| NRLLTG | binds |
| NRNNTG | binds |
| GFRNNNMYRF | binds |
| GFRVVLMYRF | binds |
| ANNNMYRR | binds |
